{"source": "paper PMC4944209", "about": "(Journal of structural biology, 2016)", "proteins": {"B1": {"name": "OmpF, β-barrel channel protein from the outer membrane of E. coli (natural protein, UniProt P02931 23-362, looked up)", "chain": "AEIYNKDGNKVDLYGKAVGLHYFSKGNGENSYGGNGDMTYARLGFKGETQINSDLTGYGQWEYNFQGNNSEGADAQTGNKTRLAFAGLKYADVGSFDYGRNYGVVYDALGYTDMLPEFGGDTAYSDDFFVGRVGGVATYRNSNFFGLVDGLNFAVQYLGKNERDTARRSNGDGVGGSISYEYEGFGIVGAYGAADRTNLQEAQPLGNGKKAEQWATGLKYDANNIYLAANYGETRNATPITNKFTNTSGFANKTQDVLLVAQYQFDFGLRPSIAYTKSKAKDVEGIGDVDLVNYFEVGATYYFNKNMSTYVDYIINQIDSDNKLGVGSDDTVAVGIVYQF"}}, "target": "the molecule itself", "assay": "cryo-EM structure"}
{"protein": "B1", "values": [{"measurement": "stoichiometry N", "result": 3}]}
